In paper PMC8137920, “Self-association of MreC as a regulatory signal in bacterial cell wall elongation” (Nature Communications, 2021):

Key:
[1] = molecular target: the molecule itself; assay: AUC; sedimentation velocity (SV-AUC), 0.8 mg/ml protein, 25 mM CHES pH 9.0, 150 mM NaCl, 10 mM MgCl2, 62,000 g, 20 °C, absorbance at 280 nm, c(s) analysis with Sedfit
[2] = molecular target: the molecule itself; assay: negative-staining electron microscopy; purified protein concentrated in 25 mM CHES pH 9.0, 150 mM NaCl, 10 mM MgCl2; mica-carbon flotation, 2% sodium silico tungstate pH 7.4

B1: MreC from Pseudomonas aeruginosa, periplasmic form, residues 15-330 (domain or fragment, Pseudomonas aeruginosa PAO1, UniProt Q9HVU1 15-330, looked up)
chain: RFDYLEPVRSKLGMVLTPFYGLAEMPVRAWEGVRDQFSSRSELIAENERLKAESLLMQRRVQKLAALTEQNVRLRELLNSAALVDDKVLVSELIGVDPNPFTQRIMIDKGENDGVFVGQPVLDASGLMGQVVEVMPYTARVLLLTDTTHSIPVQVNRNGLRAIAVGTGNPERLELRYVADTADIKEGDLLVSSGLGQRFPAGYPVATVKEVIHDSGQPFAVVRAVPTAKMNRSRYVLLVFSDSRTPEQRANDAAEAQEEADKKAAAGAQAPQPAAQPAAAPSPATPAAQGAAQQPAAAPAPAPTQPAAPAANGGRR
notes: MreC, Pseudomonas aeruginosa PAO1, residues 15-330; lacks the first 14 amino acids (cytoplasmic residues and TM region); The results call it only 'MreCPa' (periplasmic form); also called MreCPa; MreCPa(15-330); not shown: GST, N-terminal, cleaved
binding result [1]: binds

B2: MreC from Pseudomonas aeruginosa lacking the TM region and the first 21 residues of its N-terminal helix, residues 36-330 (domain or fragment, Pseudomonas aeruginosa PAO1, UniProt Q9HVU1 36-330, looked up)
chain: LAEMPVRAWEGVRDQFSSRSELIAENERLKAESLLMQRRVQKLAALTEQNVRLRELLNSAALVDDKVLVSELIGVDPNPFTQRIMIDKGENDGVFVGQPVLDASGLMGQVVEVMPYTARVLLLTDTTHSIPVQVNRNGLRAIAVGTGNPERLELRYVADTADIKEGDLLVSSGLGQRFPAGYPVATVKEVIHDSGQPFAVVRAVPTAKMNRSRYVLLVFSDSRTPEQRANDAAEAQEEADKKAAAGAQAPQPAAQPAAAPSPATPAAQGAAQQPAAAPAPAPTQPAAPAANGGRR
notes: MreC, Pseudomonas aeruginosa PAO1, residues 36-330; also called MreCPa(36-330); MreCPa; not shown: GST, N-terminal, cleaved
binding result [2]: binds
